Assay results: US9447156B2, “Methods and compositions for inhibiting neddylation of proteins” (St. Jude Children's Research Hospital, priority 2011, dated 2016)
Values belong to the molecule of their own block, whether it stands above or below them. No end group written: not given here.

Experiments:
[1] = target: T1, hDcn3^P (Homo sapiens, UniProt Q8IWE4); test: ITC binding of peptides to hDcn3^P
T1 sequence (Q8IWE4 86-304): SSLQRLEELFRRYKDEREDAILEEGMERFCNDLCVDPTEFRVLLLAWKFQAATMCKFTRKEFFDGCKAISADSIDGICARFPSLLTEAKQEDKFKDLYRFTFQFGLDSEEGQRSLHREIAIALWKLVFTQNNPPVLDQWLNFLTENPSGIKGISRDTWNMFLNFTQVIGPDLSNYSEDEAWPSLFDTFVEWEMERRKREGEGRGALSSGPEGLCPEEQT
Procedure: (§1) Protein samples were buffer matched by desalting over a NAP-5 column (GE Healthcare) into 50 mM Hepes, 125 mM NaCl, 1 mM BME, pH 7.0 (ITC buffer). Peptides were dissolved by weight to a final concentration of 10 mM in ITC buffer and diluted further in ITC buffer as required for the experiments. Measurements were performed using a MicroCal ITC200. hDcn1^P or yDcn1^P were placed into the sample cell at a final concentration of 400 μM at 18° C. The peptide ligands (4 mM) were constantly injected (1.5 μl). The interval time between each injection was 3 minutes and the duration of each injection was 3 seconds. For titrations involving hE1 and yE1, proteins were placed into the sample cell at a final concentration of 25 μM at 22° C. Peptide ligands (250 μM) were constantly injected (2.5 μl). The interval time between each injection was three minutes and the duration of each injection was 5 seconds. For hCul1^ctd-Rbx1:hDcn1^P binding, proteins were buffer matched by desalting over a NAP-5 column in 25 mM Tris, 0.1 M NaCl, 1 mM BME, pH 7.6. hCul1^ctd-Rbx1 was placed into the sample cell at a final concentration of 55 μM at 22° C. hDcn1^P (550 μM) was constantly injected (2.5 μl). The interval time between each injection was 3 minutes and the duration of each injection was 5 seconds. Obtained spectra were evaluated using Origin (V 7.0) to determine heats of binding and Kd values.
(§2) The affinity of various peptides for hDcn1^P, hDcn2^P, hDcn3^P, hDcn4^P, and hDcn5^P was tested using isothermal titration calorimetry as described in Example 1 and is provided in Table 29.

[2] = target: T2, hDcn1^P (Homo sapiens, UniProt Q96GG9); test: ITC binding of Ubc12/Ube2f peptides to hDcn1^P; conditions: Example 3
T2 construct: hDcn1^P corresponds to residues 62 to the C-terminal residue 259 of hDcn1; GST (cleaved yes); made in house; host or cells: E. coli BL21(DE3)Gold
Procedure: as §1, §2

[3] = target: T3, hDcn2^P (Homo sapiens, UniProt Q6PH85); test: ITC binding of peptides to hDcn2^P; conditions: Example 3
T3 construct: human Dcn1 family members 1-5 (also called DCUND1-DCUND5)
Procedure: as §1, §2

[4] = tested on: hCul1^ctd-hRbx1; test: Pulse-chase assay of [32P]~hNedd8 transfer from hUbc12 to hCul1-hRbx1 with or without hDcn1^P; assay type: biochemical, human; conditions: FIG. 3
Procedure: Dcn1^P-mediated co-E3 activity was monitored using pulse-chase assays to exclusively monitor effects of acetylation on Nedd8 transfer to Cul1 without sensing earlier steps in the reaction. For the “pulse”, 10 μM of the indicated versions of yUbc12 were charged with [^32P]-yNedd8 (also referred to as [^32P]-Rub1) as described previously (Scott et al. (2010) Mol Cell 39(5):784-796), resulting in formation of a thiolester-linked yUbc12-[^32P]-yNedd8 intermediate. 10 μM of the indicated versions of hUbc12 were charged similarly with [^32P]-hNedd8, for 15 minutes at room temperature using 0.1 μM hE1, 15 μM [^32P]-hNedd8, in 50 mM Hepes, 100 mM NaCl, 1.25 mM ATP, 2.5 mM MgCl2, pH 7.5. Formation of a yUbc12-[^32P]-yNedd8 or hUbc12-[^32P]-hNedd8 intermediate was quenched with 50 mM EDTA on ice for 5 minutes. Other than in FIG. 3, where additional details are provided, chase reactions with hUbc12 and yUbc12 variants involved dilution of the Ubc12-[^32P]-Nedd8 thioester conjugate to 40 nM in 50 mM BisTris, 100 mM NaCl, 50 mM EDTA, 0.5 mg/ml BSA, pH 6.7. Chase reactions were initiated at 0° C. by the addition of hCul1^ctd-hRbx1, yCul1^C+-yRbx1, hDcn1^P-hCul1^ctd-hRbx1, or yDcn1^P-yCul1^C+-yRbx1 at a final concentration of 125 nM. Aliquots were removed at the indicated times and quenched with 2×SDS-PAGE sample buffer. […]

T2 sequence (Q96GG9 62-259): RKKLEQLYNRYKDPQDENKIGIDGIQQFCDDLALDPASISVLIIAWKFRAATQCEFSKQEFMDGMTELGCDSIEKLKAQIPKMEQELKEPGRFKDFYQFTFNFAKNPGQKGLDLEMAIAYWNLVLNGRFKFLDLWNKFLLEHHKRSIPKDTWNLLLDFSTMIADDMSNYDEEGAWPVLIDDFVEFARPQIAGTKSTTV
T3 sequence (Q6PH85 62-259): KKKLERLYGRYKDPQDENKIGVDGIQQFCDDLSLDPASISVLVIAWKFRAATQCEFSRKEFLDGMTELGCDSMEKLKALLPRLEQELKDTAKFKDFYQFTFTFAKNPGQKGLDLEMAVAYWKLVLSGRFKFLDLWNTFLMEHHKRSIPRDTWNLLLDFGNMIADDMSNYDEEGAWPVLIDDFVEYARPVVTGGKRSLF

Kd ([1]; Table 29, peptides with amidated carboxy-terminus): > 400 µM
Molecule: MLTLASKLKRDDGLKGSRTAATASD-NH2 [hUbe2f^1−25]

affinity for Dcn1 (comparison in words) [2]: greatest affinity
affinity for Dcn2 (comparison in words) [3]: greatest affinity
Molecule: hUbc12Ac1-26: N-terminally acetylated peptide of residues 1-26 of human Ubc12 (Ac-MIKLFSLKQQKKEEESAGGTKGSSKK-NH2)

affinity for Dcn3 (comparison in words) ([1]; Example 3): greatest affinity
binding specificity for Dcn3 over other co-E3 proteins ([1]; Example 3): fairly specific
Molecule: hUbe2fAcl-25: N-terminally acetylated human Ube2f residues 1-25 (Ac-MLTLASKLKRDDGLKGSRTAATASD-NH2)

B1: CAND1: protein inhibitor of Cul1 neddylation, expressed in E. coli (protein, UniProt Q86VP6 2-1230, looked up)
Cullin-associated …: ASASYHISNLLEKMTSSDKDFRFMATNDLMTELQKDSIKLDDDSERKVVKMILKLLEDKNGEVQNLAVKCLGPLVSKVKEYQVETIVDTLCTNMLSDKEQLRDISSIGLKTVIGELPPASSGSALAANVCKKITGRLTSAIAKQEDVSVQLEALDIMADMLSRQGGLLVNFHPSILTCLLPQLTSPRLAVRKRTIIALGHLVMSCGNIVFVDLIEHLLSELSKNDSMSTTRTYIQCIAAISRQAGHRIGEYLEKIIPLVVKFCNVDDDELREYCIQAFESFVRRCPKEVYPHVSTIINICLKYLTYDPNYNYDDEDEDENAMDADGGDDDDQGSDDEYSDDDDMSWKVRRAAAKCLDAVVSTRHEMLPEFYKTVSPALISRFKEREENVKADVFHAYLSLLKQTRPVQSWLCDPDAMEQGETPLTMLQSQVPNIVKALHKQMKEKSVKTRQCCFNMLTELVNVLPGALTQHIPVLVPGIIFSLNDKSSSSNLKIDALSCLYVILCNHSPQVFHPHVQALVPPVVACVGDPFYKITSEALLVTQQLVKVIRPLDQPSSFDATPYIKDLFTCTIKRLKAADIDQEVKERAISCMGQIICNLGDNLGSDLPNTLQIFLERLKNEITRLTTVKALTLIAGSPLKIDLRPVLGEGVPILASFLRKNQRALKLGTLSALDILIKNYSDSLTAAMIDAVLDELPPLISESDMHVSQMAISFLTTLAKVYPSSLSKISGSILNELIGLVRSPLLQGGALSAMLDFFQALVVTGTNNLGYMDLLRMLTGPVYSQSTALTHKQSYYSIAKCVAALTRACPKEGPAVVGQFIQDVKNSRSTDSIRLLALLSLGEVGHHIDLSGQLELKSVILEAFSSPSEEVKSAASYALGSISVGNLPEYLPFVLQEITSQPKRQYLLLHSLKEIISSASVVGLKPYVENIWALLLKHCECAEEGTRNVVAECLGKLTLIDPETLLPRLKGYLISGSSYARSSVVTAVKFTISDHPQPIDPLLKNCIGDFLKTLEDPDLNVRRVALVTFNSAAHNKPSLIRDLLDTVLPHLYNETKVRKELIREVEMGPFKHTVDDGLDIRKAAFECMYTLLDSCLDRLDIFEFLNHVEDGLKDHYDIKMLTFLMLVRLSTLCPSAVLQRLDRLVEPLRATCTTKVKANSVKQEFEKQDELKRSAMRAVAALLTIPEAEKSPLMSEFQSQISSNPELAAIFESIQKDSSSTNLESMDTS
Cul1 neddylation in the presence of Dcn1^P and Ubc12 N-terminal acetylation [4]: blocked
